Laboratory results published in the supplement of paper PMC9112550, “Optimization of the antimicrobial peptide Bac7 by deep mutational scanning” (BMC Biology, 2022).

Test system: Escherichia coli TOP10
Assay: shrunken log2 fold change of peptide-encoding DNA abundance (4.5 h post-induction vs induction); higher = less antimicrobial activity (less host growth inhibition)
Settings: time post-induction: 4.5 h; library: site-saturation at positions 5, 18, 19, 20
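Also: peptides expressed intracellularly from a pBAD plasmid library in pooled LB shake-flask culture, induced with 0.3% L-arabinose, DNA abundance read by NGS, three biological replicates, DESeq2 with apeglm shrinkage.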

Sequence	shrunken log2 fold change
RRIRCRPPRLPRPRPRPCTHPRP	-0.48
RRIRCRPPRLPRPRPRPLLEPRP	0.234
RRIRYRPPRLPRPRPRPMYPPRP	-0.00192
RRIRRRPPRLPRPRPRPKTDPRP	0.163
RRIRGRPPRLPRPRPRPYCLPRP	-0.305
RRIRDRPPRLPRPRPRPDPFPRP	-0.00228
RRIRVRPPRLPRPRPRPFNLPRP	-0.103
RRIRARPPRLPRPRPRPMTYPRP	-0.086
RRIRVRPPRLPRPRPRPPHRPRP	0.29
RRIRCRPPRLPRPRPRPVNPPRP	-0.176
RRIRHRPPRLPRPRPRPNQVPRP	0.0339
RRIRHRPPRLPRPRPRPGIIPRP	-0.0698
RRIRLRPPRLPRPRPRPAQCPRP	-0.23
RRIRVRPPRLPRPRPRPARRPRP	0.382
RRIRMRPPRLPRPRPRPTWNPRP	0.188
RRIRLRPPRLPRPRPRPPWIPRP	-0.35
RRIRKRPPRLPRPRPRPWLQPRP	-0.0256
RRIRYRPPRLPRPRPRPENAPRP	0.0607
RRIRWRPPRLPRPRPRPSYFPRP	1.15
RRIRVRPPRLPRPRPRPEPYPRP	-0.2
RRIRIRPPRLPRPRPRPQHVPRP	-0.211
RRIRHRPPRLPRPRPRPIYRPRP	-0.111
RRIRMRPPRLPRPRPRPKLGPRP	0.597
RRIRPRPPRLPRPRPRPATRPRP	0.442
RRIRFRPPRLPRPRPRPLIMPRP	-0.352

Sequence	shrunken log2 fold change
RRIRWRPPRLPRPRPRPWEIPRP	0.124
RRIRCRPPRLPRPRPRPVYHPRP	-0.53
RRIRFRPPRLPRPRPRPGEGPRP	0.375
RRIRGRPPRLPRPRPRPSYIPRP	-0.458
RRIRTRPPRLPRPRPRPWDQPRP	-0.00674
RRIRCRPPRLPRPRPRPEDRPRP	-0.0137
RRIRTRPPRLPRPRPRPAPFPRP	0.0263
RRIRQRPPRLPRPRPRPPPWPRP	0.981
RRIRLRPPRLPRPRPRPISIPRP	0.111
RRIRVRPPRLPRPRPRPWHLPRP	-0.191
RRIRIRPPRLPRPRPRPKMFPRP	0.0072
RRIRNRPPRLPRPRPRPEFMPRP	0.0662
RRIRWRPPRLPRPRPRPGFVPRP	0.291
RRIRHRPPRLPRPRPRPHLLPRP	-0.286
RRIRNRPPRLPRPRPRPAAYPRP	-0.0872
RRIRTRPPRLPRPRPRPMAEPRP	0.117
RRIRVRPPRLPRPRPRPPWVPRP	0.297
RRIRRRPPRLPRPRPRPTDNPRP	0.277
RRIRFRPPRLPRPRPRPQTLPRP	-0.399
RRIRGRPPRLPRPRPRPEIAPRP	1.86
RRIRMRPPRLPRPRPRPESHPRP	0.076
RRIRDRPPRLPRPRPRPFFCPRP	0.55
RRIRFRPPRLPRPRPRPEECPRP	-0.0175
RRIRVRPPRLPRPRPRPGSIPRP	0.00983
RRIRWRPPRLPRPRPRPLGTPRP	0.0928

Sequence	shrunken log2 fold change
RRIRIRPPRLPRPRPRPYHEPRP	-0.216
RRIRGRPPRLPRPRPRPMGPPRP	0.846
RRIRERPPRLPRPRPRPYHHPRP	-1.56
RRIRHRPPRLPRPRPRPTVGPRP	0.0689
RRIRGRPPRLPRPRPRPPWIPRP	0.256
RRIRSRPPRLPRPRPRPCLDPRP	-0.224
RRIRWRPPRLPRPRPRPNKRPRP	0.149
RRIRIRPPRLPRPRPRPILYPRP	-0.357
RRIRCRPPRLPRPRPRPAMWPRP	0.295
RRIRPRPPRLPRPRPRPWHWPRP	-0.0102
RRIRARPPRLPRPRPRPKPLPRP	0.455
RRIRERPPRLPRPRPRPLWYPRP	-0.287
RRIRLRPPRLPRPRPRPMLPPRP	-0.164
RRIRFRPPRLPRPRPRPAFRPRP	0.132
RRIRFRPPRLPRPRPRPGWYPRP	-0.463
RRIRFRPPRLPRPRPRPEMAPRP	0.635
RRIRIRPPRLPRPRPRPHMVPRP	-0.181
RRIRVRPPRLPRPRPRPNEFPRP	-0.00739
RRIRKRPPRLPRPRPRPWKMPRP	0.0749
RRIRDRPPRLPRPRPRPFWIPRP	-0.408
RRIRQRPPRLPRPRPRPVWWPRP	0.015
RRIRSRPPRLPRPRPRPDWGPRP	-0.128
RRIRWRPPRLPRPRPRPPFIPRP	-0.117
RRIRHRPPRLPRPRPRPLDNPRP	-0.515
RRIRVRPPRLPRPRPRPGGWPRP	0.72
